Assay results reported in patent US20220047684A1, “ENZYMES AND METHODS FOR PREVENTING AND TREATING […] IN ANIMALS” (Ecto Development Corporation, priority 2020, published 2022).

Tests used:
Type in all cases: biochemical
[1] = pNPA method esterase (carboxylesterase) activity assay of spore productions; conditions: 30° C. for 30 minutes, absorbance at 400
Protocol: Each of the identified enzymes were evaluated for esterase activity assay using pNBA method described below. Determination of carboxylesterase activity of cargo enzyme in Bacillus thuringiensis spore productions or of free enzyme productions. Three active carboxylesterases cloned into pBCm (Bt EO) and pET28a (E. coli BL21) systems: pnbA (B. subtilis), PytH2 (Sphingobium wenxiniae strain), and MsE1 (Methylobacterium sp). p-Nitrophenyl acetate was the substrate in assays for esterase activity. The hydrolysis of p-nitrophenyl acetate releases p-nitrophenol and acetate, and while p-nitrophenyl acetate is colorless, p-nitrophenol is yellow.
6 mg p-Nitrophenyl acetate (pNPA, CAS #830-03-5, MW: 181.1 g/mol) was weighed and dissolved in 1 mL methanol (CAS #67-56-1, MW: 32.04 g/mol). Stored at −20° C. and kept on ice when preparing reactions.
8.0 g sodium chloride (NaCl, CAS #7647-14-5, MW: 58.44 g/mol), 1.44 g sodium phosphate dibasic was dissolved (Na2HPO4, CAS #7558-79-4, MW: 141.96 g/mol), and 0.24 g potassium phosphate monobasic (KH2PO4, CAS #7778-77-0, 136.09 g/mol) in 800 mL DI H20, then adjust pH to 7.4 using hydrochloric acid (HCl, CAS #7647-01-0, MW: 36.46 g/mol). Make 100 mL aliquots and autoclave.
Esterase from rabbit liver (CAS #9016-18-6, Sigma E0887-powder). Store at −20° C. To prepare a stock dissolve 1 mg in 1 mL PBS, kept on ice when using.
Up to 1 mL spore production was pelleted up for 5 min at max speed. Supernatant was discarded without disturbing spore pellet and suspend pellet in ice-cold PBS. Spores kept suspended on ice until use.
The assay was run at 30° C. for 30 minutes. The assay was shaken continuously. Activity was read on (A) 400 BioTek Synergy/HTX microplate reader was used. The results of pNPA hydrolysis are shown in Table 3 depicting carboxylesterase enzyme activity for each of the five strains using pNPA hydrolysis.

[2] = Cypermethrin degradation, HPLC; conditions: 50 ppm cypermethrin in 1 mL PBS with 10 μL pPytH2; 15 minutes at 37 C, 300 rpm
Protocol: 50 ppm of cypermethrin was placed in 1 mL PBS with 10 μL pPytH2, PytH2 and reacted for 15 minutes at 37 C with shaking at 300 rpm. HPLC was run on the sample after being diluted 1:1 MeOH using instrument method described above for permethrin for 10 minutes.

[3] = Deltamethrin degradation, HPLC; conditions: method as for permethrin; FIG. 5
Description: Using the method and instruments described above for permethrin, 40% of deltamethrin was degraded by pPytH2, PytH2 esterase as shown in FIG. 5.

[4] = Biological permethrin assay for esterase activity (activity units of esterases); conditions: esterases used in reaction mix for scud assay
Protocol: A biological permethrin assay was performed for control, and three esterases pnbA, pytH2 and MsE1. The sensitivity of scuds (Hyalella Azteca) to permethrin was tested with three esterases pnbA, pytH2 and MsE1.
For control and each of the three esterases pnbA, pytH2 and MsE1, ten scuds were exposed to permethrin and one of pnbA, pytH2 or MsE1.
• 100 μL 50% MeOH in PBS • 0.2 μg/μL
• 37 degree C. • 18 hr • Shanking 1000 rpm Transferred 20 μL rxn mix [4 μg] to 100 mL [containing 10 scuds] At time, 24 h and 48 h the ten scuds were scored: A=Alive and Moving actively BA=Barely Alive—Difficulty swimming away; only legs are moving D=Dead—Not moving at all The results of which are shown in FIGS. 8 and 9.

[5] = Characterisation of purified recombinant PytH2 carboxylesterase on p-nitrophenyl esters
Protocol: Protein is a carboxylesterase from Sphingobium wenxiniae produced by PytH2 recombinant, expressed in E. coli BL21 (DE3) IUBMB: 3.1.1.88 CAS: 9016-18-6. The Chemical Composition of the carboxylesterase has Chemical purity: >90% buffer of 10 mM phosphate (pH 7.4), 2.7 mM KCI, 137 mM NaCI. Post translational procedures produced in a protease deficient E. coli strain and optimized for synthesis. The protein Appearance: clear, colorless solution:
Unit definition: One unit is defined as the amount of enzyme required to generate 1 μmol/min of 4-p-nitrophenol from 4-nitrophenyl-L-acetate at 30° C. and pH 7.4. Specific activity: 15±3 μ/mg
The enzyme is also deactivated by surfactant compounds such as SDS.
An esterase gene (PytH2) of Sphingobium wenxiniae containing an open reading frame (ORF) of 873 bp. The ORF of PytH2 was expressed in Escherichia coli, under the control of the promoter T7. […] E. coli BL21(DE3)/pET28 containing PytH2 expressed a novel 31.4-kDa protein corresponding to PytH2 in an N-terminal fusion with the His-tag peptide. The recombinant Sphingobium wenxiniae PytH2 protein was purified to electrophoretic homogeneity in a one-step affinity chromatography procedure on Ni-NTA Resin. The optimum pH and temperature of the purified enzyme were 7.0 and 37 degrees C., respectively. […] It was also active on pNP-butyrate(C(4) and pNPcaproate(C(6)).

[6] = Order of pyrethroid hydrolysis efficiency of PytH2; conditions: pyrethroid substrates
Description: Activity of the enzyme: In order of hydrolysis efficiency: transpermethrin>cis-permethrin>fenpropathrin>trans-cypermethrin>cis-cypermethrin>cyhalothrin>fenvalerate>deltamethrin>bifenthrin.

[7] = Serum analysis: cat serum plus permethrin +/- E3, HPLC; conditions: for % permethrin control: relative to no enzyme
Protocol: The next step was to test the enzymatic hydrolysis of permethrin in feline blood (cat serum). Cat serum was acquired, permethrin was added to the serum and was assayed as a control by HPLC. After the cat serum control was analyzed three different concentrations of the enzyme were introduced to the cat serum control and then analyzed by HPLC.
Cat serum was acquired, permethrin was added to the serum and was assayed as a control by HPLC. After the cat serum control was analyzed three different concentrations of the enzyme were introduced to the cat serum control and then analyzed by HPLC.

B1: E3: carboxylesterase PytH2 (pytH) from Sphingobium wenxiniae, amino acid SEQ. ID No. 3, DNA SEQ. ID No. 6; recombinant, His-tagged (protein, listed as Sphingobium wenxiniae)
chain: MTVTDIILIHGALNRGACYDAVVPLLEARGYRVHAPDLTGHTPGDGGHLSVVDMEHYTRPVADILARAEGQSILLGHSLGGASISWLAQHHYDKVAGLIYLTAVLTAPGITPETFVLPGEPNRGTPHALDLIQPVDEGRGLQADFSRLERLREVFMGDYPGEGMPPAEQFIQTQSTVPFGTPNPMEGRALEIPRLYEALDDVVIPIAVQRQMQKEFPGPVAVVSLPASHAPYYSMPERLAEAIADFADAPAEYRQTATKAGPDRPAGADGGRADRADLP
modifications: His tag
notes: ID No. 6; recombinant, His-tagged
[1]
  pNPA hydrolysis: 26.3 ± 0.9 nmol pNPA/min/1E+8 spores
[2]
  Cypermethrin degradation rate: 12.69 nmol/min/μg pPytH2
[3]
  deltamethrin degraded: 40%
[4]
  Activity units: 31.6
[5]
  cofactor requirement for activity: does not require a cofactor
  stability of the enzyme: quite stable
[5]; after incubation at 70° C.
  activity after heat incubation: inactive
[5]; metal ions, can recover activity
  effect of metal ions on the enzyme: strongly inhibited
[5]; one unit = 1 μmol/min 4-p-nitrophenol from 4-nitrophenyl-L-acetate at 30° C. and pH 7.4
  Specific activity: 15±3 μ/mg
[5]; pNP-acetate
  substrate preference among pNP (p-nitrophenyl) esters: pNP-acetate (C(2)): best substrate
[5]; pNP-butyrate(C(4))
  activity on pNP-butyrate: active
[5]; pNPcaproate(C(6))
  activity on pNPcaproate: active
[5]; purified enzyme
  optimum pH: 7.0
  optimum temperature: 37 degrees C.
[5]; surfactant compounds such as SDS
  effect of surfactant compounds on the enzyme: deactivated
[6]
  order of hydrolysis efficiency: transpermethrin>cis-permethrin>fenpropathrin>trans-cypermethrin>cis-cypermethrin>cyhalothrin>fenvalerate>deltamethrin>bifenthrin
[7]; 2.5 μL E3, 15 min 37 degree C.
  Cis-permethrin (HPLC area): 1624.5
  Total permethrin (area): 1624.5 area
  Total permethrin (expected 2 ppm): 0.098 ppm
  Trans-permethrin (HPLC area): 0
  % permethrin control: 7.0%
[7]; 10 μL E3, 15 min 37 degree C.
  Cis-permethrin (HPLC area): 0
  Total permethrin (area): 0 area
  Total permethrin (expected 2 ppm): 0.000 ppm
  Trans-permethrin (HPLC area): 0
  % permethrin control: 0.0%
[7]; 10 μL E3, 15 min 37 degree C., listed as PytH2
  % permethrin control: 0.0%
[7]; 30 μL E3, 15 min 37 degree C.
  Cis-permethrin (HPLC area): 0
  Total permethrin (area): 0 area
  Total permethrin (expected 2 ppm): 0.000 ppm
  Trans-permethrin (HPLC area): 0
  % permethrin control: 0.0%
